Data as given in publication PMC11965310, “Inhibition of tau neuronal internalization using anti-tau single domain antibodies” (Nature Communications, 2025).

T1: tau[369–381] C-terminal peptide (Homo sapiens)
T1 construct: also called tau-C-ter peptide; tau-Cter peptide
T1 chain: KKIETHKLTFREN


Tests used:
Conditions in all cases: both partners purified
tau2N4R = biological target: T2, tau2N4R (Homo sapiens, UniProt P10636-8, biotin (NHS-biotin, 3 molar excess) when immobilised in SPR; 15N-labelled in NMR); assay: SPR; biotinylated tau2N4R, tau1N4R or tauMTBD captured on a streptavidin (SA) chip; VHHs without tag as analytes, 0.0625-4 μM, single-cycle kinetics; 25 °C, HBS EP+; 1:1 Langmuir model
T2 construct: tau protein, isoform 2N4R, the largest tau isoform; Expressed from pET15b-tau2N4R; also called full-length tau2N4R; largest tau isoform; source: E. coli BL21 (DE3), purified (heating at 75 °C, cation exchange)
T2 sequence (P10636 other isoform, or with tags, fused parts or gaps): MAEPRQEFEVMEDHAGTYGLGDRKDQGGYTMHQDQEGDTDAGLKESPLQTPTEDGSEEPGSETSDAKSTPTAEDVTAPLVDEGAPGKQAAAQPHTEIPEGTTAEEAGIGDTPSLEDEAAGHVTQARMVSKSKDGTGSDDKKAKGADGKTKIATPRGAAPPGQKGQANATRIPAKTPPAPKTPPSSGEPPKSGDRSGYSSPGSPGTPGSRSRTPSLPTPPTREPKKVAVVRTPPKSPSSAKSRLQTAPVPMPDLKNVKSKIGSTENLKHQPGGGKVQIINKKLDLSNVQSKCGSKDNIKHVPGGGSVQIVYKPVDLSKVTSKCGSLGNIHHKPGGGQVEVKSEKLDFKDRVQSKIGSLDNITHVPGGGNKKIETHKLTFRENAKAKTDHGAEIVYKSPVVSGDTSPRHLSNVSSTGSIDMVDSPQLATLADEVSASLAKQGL

tau1N4R = biological target: T3, tau1N4R (Homo sapiens, UniProt P10636-7, biotin (NHS-biotin, 3 molar excess) when immobilised in SPR; Alexa Fluor 546 C5-maleimide on its two native cysteine residues in the uptake assay); assay: as above
T3 construct: tau protein, isoform 1N4R; Used without a stated label as analyte on LRP1 cluster III; also called full-length tau1N4R; monomeric tau1N4R; source: E. coli BL21 (DE3), purified (heating at 75 °C, cation exchange)
T3 sequence (P10636 other isoform, or with tags, fused parts or gaps): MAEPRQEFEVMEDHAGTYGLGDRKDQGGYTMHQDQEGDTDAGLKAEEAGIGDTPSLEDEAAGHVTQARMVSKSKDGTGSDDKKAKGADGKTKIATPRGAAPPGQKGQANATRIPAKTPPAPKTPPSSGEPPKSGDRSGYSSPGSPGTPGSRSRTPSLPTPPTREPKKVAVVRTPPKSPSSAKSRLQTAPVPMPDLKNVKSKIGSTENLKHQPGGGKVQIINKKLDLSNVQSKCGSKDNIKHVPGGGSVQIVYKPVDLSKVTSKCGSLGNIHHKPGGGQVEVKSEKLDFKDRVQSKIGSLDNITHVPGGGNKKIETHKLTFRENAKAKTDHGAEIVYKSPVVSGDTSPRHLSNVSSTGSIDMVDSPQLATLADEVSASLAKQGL

tauMTBD = biological target: T4, tauMTBD (Homo sapiens, UniProt P10636, biotin (NHS-biotin, ratio 1:0.5) when immobilised in SPR; Atto488 NHS ester in the uptake assay); assay: as above
T4 construct: also called tauMTBD fragment; source: E. coli BL21 (DE3), purified (heating at 75 °C, cation exchange)
T4 sequence (P10636 whole entry, looked up, the tested form may be a part): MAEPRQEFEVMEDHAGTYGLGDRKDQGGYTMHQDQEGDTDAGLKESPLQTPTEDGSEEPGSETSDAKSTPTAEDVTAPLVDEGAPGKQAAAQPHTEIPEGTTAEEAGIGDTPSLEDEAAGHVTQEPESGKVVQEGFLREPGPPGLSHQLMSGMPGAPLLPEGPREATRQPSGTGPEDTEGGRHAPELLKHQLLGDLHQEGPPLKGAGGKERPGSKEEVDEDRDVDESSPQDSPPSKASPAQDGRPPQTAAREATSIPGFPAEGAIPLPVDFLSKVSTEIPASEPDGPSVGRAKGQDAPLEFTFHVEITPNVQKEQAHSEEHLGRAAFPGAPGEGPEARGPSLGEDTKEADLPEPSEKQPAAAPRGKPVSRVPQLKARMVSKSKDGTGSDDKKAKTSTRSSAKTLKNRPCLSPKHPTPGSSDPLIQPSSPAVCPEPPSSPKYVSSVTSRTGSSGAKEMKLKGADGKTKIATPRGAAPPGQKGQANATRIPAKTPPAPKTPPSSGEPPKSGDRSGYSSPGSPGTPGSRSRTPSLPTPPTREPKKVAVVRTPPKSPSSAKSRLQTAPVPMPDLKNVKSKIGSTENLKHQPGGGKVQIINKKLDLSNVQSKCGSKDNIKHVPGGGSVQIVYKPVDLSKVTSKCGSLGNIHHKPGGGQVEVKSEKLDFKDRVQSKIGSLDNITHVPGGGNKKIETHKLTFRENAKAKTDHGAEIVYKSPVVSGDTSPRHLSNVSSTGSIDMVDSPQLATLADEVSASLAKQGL

[1] = biological target: T1, tau[369–381] C-terminal peptide; assay: SPR; same data as the multi-cycle kinetics; steady-state analysis of maximum responses, one-site specific binding model
[2] = biological target: T1, tau[369–381] C-terminal peptide; assay: as above
[3] = biological target: T1, tau[369–381] C-terminal peptide; assay: SPR; biotinylated VHH-Cys captured on SA chip; tau[369-381] peptide as analyte, multi-cycle kinetics; 25 °C, HBS EP+; kinetic analysis, 1:1 Langmuir model
[4] = biological target: T1, tau[369–381] C-terminal peptide; assay: as above
[5] = biological target: T1, tau[369–381] C-terminal peptide; assay: AlphaScreen or HTRF; 6His-VHH bound by anti-6His antibody-Terbium (1.5 nM) and 6His-VHH bound by anti-6His antibody-D2 (20 nM); tau-Cter peptide 32 nM to 100 µM; 1 h at room temperature

Binder	Kd (tau2N4R)	koff (tau2N4R)	kon (tau2N4R)	Kd (tau1N4R)	koff (tau1N4R)	kon (tau1N4R)	binding result (tauMTBD)	Kd [1]	Kd [2]	stoichiometry N [2]	Kd [3]	koff [3]	kon [3]	Kd [4]	EC50 [5]
VHH F8-2 (VHH, source: E. coli periplasm, purified (IMAC, SEC, TEV cleavage, second IMAC); not shown: His6, N-terminal, cleaved) VHH: EVQLQASGGGFVQPGGSLRLSCAASGGTSYWDGMGWFRQAPGKEREFVSAISGRGNIGTYYADSVKGRFTISRDNSKNTVYLQMNSLRAEDTATYYCAAFRHEVHGSMRHEWEVIKYWGQGTQVTVSS	753 nM	0.04 s⁻¹	53100 M⁻¹ s⁻¹	740 nM	0.0425 s⁻¹	57500 M⁻¹ s⁻¹									
VHH E2-2 (VHH, From the Nali-H1 VHH library; source: E. coli periplasm, purified (IMAC, SEC, TEV cleavage, second IMAC); not shown: His6, N-terminal, cleaved) VHH: EVQLQASGGGFVQPGGSLRLSCAASGSTYDFDAMGWFRQAPGKEREFVSAISGDADLARYYADSVKGRFTISRDNSKNTVYLQMNSLRAEDTATYYCAAFRHEVHGSMRHEWEVIKYWGQGTQVTVSS	84 nM	0.0038 s⁻¹	44900 M⁻¹ s⁻¹	96 nM	0.0045 s⁻¹	46700 M⁻¹ s⁻¹	no binding (tested: 4 μM)								
VHH H3-2 (VHH, From the Nali-H1 VHH library; Forms a swapped dimer in the crystal and mostly a dimer in SEC at 20 µM; Coupled to 10 nm gold beads for electron microscopy; source: E. coli periplasm, purified (IMAC, SEC, TEV cleavage, second IMAC); not shown: His6, N-terminal, cleaved) VHH: EVQLQASGGGFVQPGGSLRLSCAASGYTSGDEIMGWFRQAPGKEREFVSAISWQSGTSTYYADSVKGRFTISRDNSKNTVYLQMNSLRAEDTATYYCAPMTLAETYYEWLISGYWGQGTQVTVSS	8.9 nM	0.0056 s⁻¹	630000 M⁻¹ s⁻¹	11 nM	0.006 s⁻¹	554000 M⁻¹ s⁻¹	no binding (tested: 4 μM)								
biotinylated VHH E2-2 with a cysteine at the C-terminus (VHH, as the VHH chain of m11; additional C-terminal cysteine; source: E. coli periplasm, purified (IMAC, SEC, TEV cleavage, second IMAC); not shown: His6, N-terminal, cleaved) VHH: EVQLQASGGGFVQPGGSLRLSCAASGSTYDFDAMGWFRQAPGKEREFVSAISGDADLARYYADSVKGRFTISRDNSKNTVYLQMNSLRAEDTATYYCAAFRHEVHGSMRHEWEVIKYWGQGTQVTVSS								518 to 820 nM	578 nM	0.45	820 nM	0.124 s⁻¹	154000 M⁻¹ s⁻¹		
biotinylated VHH H3-2 with a cysteine at the C-terminus (VHH, as the VHH chain of m8; additional C-terminal cysteine; source: E. coli periplasm, purified (IMAC, SEC, TEV cleavage, second IMAC); not shown: His6, N-terminal, cleaved) VHH: EVQLQASGGGFVQPGGSLRLSCAASGYTSGDEIMGWFRQAPGKEREFVSAISWQSGTSTYYADSVKGRFTISRDNSKNTVYLQMNSLRAEDTATYYCAPMTLAETYYEWLISGYWGQGTQVTVSS									297 nM	0.41	280 nM	0.071 s⁻¹	192000 M⁻¹ s⁻¹	297 to 380 nM	
6His-VHH H3-2 (VHH, as the VHH chain of m8; The construct has a TEV site between the 6-His tag and the VHH; also called 6Histag-H3-2; source: E. coli periplasm, purified; not shown: His6, N-terminal, kept) VHH: EVQLQASGGGFVQPGGSLRLSCAASGYTSGDEIMGWFRQAPGKEREFVSAISWQSGTSTYYADSVKGRFTISRDNSKNTVYLQMNSLRAEDTATYYCAPMTLAETYYEWLISGYWGQGTQVTVSS															2700 nM
